Results on one molecule are retold here after patent US7807153 (Genentech, dated 2010).

In this experiment the target is T1, DR4 expressed in transfected CHO cells (UniProt O00220 24-468, limits assumed).
T1 construct: whole, on cells; also called DR4-transfected CHO cells; DR4-transfected cells
As to the kind of experiment: immunohistochemistry on sections of transfected CHO cells. As for the experimental part:
CHO cells were transfected with vector alone or vector containing the gene for Apo-2 or DR4. The transfected cells were removed from culture plates, pelleted, and washed twice with PBS. The pellets were then resuspended in O.C.T. (Fisher), flash frozen in isopentain and LN_2, and later sectioned using standard protocols. Staining of the sectioned cells was performed using a Vectastain Elite ABC kit. […] The secondary antibody employed was either a biotinylated anti-c-myc 9E10 antibody or anti-Penta His antibody (Qiagen) followed by biotinylated anti-mouse IgG.

B1: single chain antibody (scFv) fragment 16E2 (scFv)
scFv: EVQLVQSGGGVERPGGSLRLSCAASGFTFDDYGMSWVRQAPGKGLEWVSGINWNGGSTGYADSVKGRVTISRDNAKNSLYLQMNSLRAEDTAVYYCAKILGAGRGWYFDLWGKGTTVTVSSGGGGSGGGGSGGGGSSELTQDPAVSVALGQTVRITCQGDSLRSYYASWYQQKPGQAPVLVIYGKNNRPSGIPDRFSGSSSGNTASLTITGAQAEDEADYYCNSRDSSGNHVVFGGGTKLTVLGAAAHHHHHHGAAEQKLISEEDLNGAA
notes: Purified by IMAC from E. coli; also called 16E2 antibody; anti-Apo-2 antibody 16E2
B1: the binding result was “no binding”.
